The target of one assay is Clb5-TAP-Cdk1 complex (budding yeast | budding yeast …, UniProt P30283 1-435; P00546 1-298). Nature of the assay: pull-down.
The target of another assay is 3HA-Cln2-Cdk1 complex (budding yeast | budding yeast …, UniProt P20438 1-545; P00546 1-298).
Sequence of 3HA-Cln2-Cdk1 complex (P20438 whole entry, chain 1 of 2): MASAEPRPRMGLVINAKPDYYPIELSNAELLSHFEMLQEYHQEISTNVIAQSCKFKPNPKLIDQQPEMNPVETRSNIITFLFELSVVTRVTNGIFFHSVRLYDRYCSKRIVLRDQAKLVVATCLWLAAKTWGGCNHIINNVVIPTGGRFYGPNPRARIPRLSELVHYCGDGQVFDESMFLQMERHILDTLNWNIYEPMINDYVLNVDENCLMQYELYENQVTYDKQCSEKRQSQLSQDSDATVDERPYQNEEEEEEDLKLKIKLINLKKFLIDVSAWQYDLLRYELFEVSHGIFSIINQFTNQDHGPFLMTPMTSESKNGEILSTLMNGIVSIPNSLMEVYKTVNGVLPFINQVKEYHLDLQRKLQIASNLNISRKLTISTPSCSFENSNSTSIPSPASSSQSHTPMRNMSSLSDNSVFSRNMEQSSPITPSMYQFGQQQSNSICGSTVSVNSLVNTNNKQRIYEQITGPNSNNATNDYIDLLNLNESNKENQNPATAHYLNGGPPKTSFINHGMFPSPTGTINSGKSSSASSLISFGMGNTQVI
Sequence of 3HA-Cln2-Cdk1 complex (P00546 whole entry, chain 2 of 2): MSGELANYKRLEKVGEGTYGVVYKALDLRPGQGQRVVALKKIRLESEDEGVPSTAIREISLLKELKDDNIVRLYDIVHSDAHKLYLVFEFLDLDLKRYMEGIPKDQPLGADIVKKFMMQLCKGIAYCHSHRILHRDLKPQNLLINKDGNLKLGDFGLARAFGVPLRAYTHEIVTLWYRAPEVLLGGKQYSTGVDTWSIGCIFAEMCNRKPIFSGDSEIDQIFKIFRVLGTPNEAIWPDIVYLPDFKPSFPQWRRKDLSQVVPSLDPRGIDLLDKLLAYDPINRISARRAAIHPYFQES

Sequence of Clb5-TAP-Cdk1 complex (P30283 whole entry, chain 1 of 2): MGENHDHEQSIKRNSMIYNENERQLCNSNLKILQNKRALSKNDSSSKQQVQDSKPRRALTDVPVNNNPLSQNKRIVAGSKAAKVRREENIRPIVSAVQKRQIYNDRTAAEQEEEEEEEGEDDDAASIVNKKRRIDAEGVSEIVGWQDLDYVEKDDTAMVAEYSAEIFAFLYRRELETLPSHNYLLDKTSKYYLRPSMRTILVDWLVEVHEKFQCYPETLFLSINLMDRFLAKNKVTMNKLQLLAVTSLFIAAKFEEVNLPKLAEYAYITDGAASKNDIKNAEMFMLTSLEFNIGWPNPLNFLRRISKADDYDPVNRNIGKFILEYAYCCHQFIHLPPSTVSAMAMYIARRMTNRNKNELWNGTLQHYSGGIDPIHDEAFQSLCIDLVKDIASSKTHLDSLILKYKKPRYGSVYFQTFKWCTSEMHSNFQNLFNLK
Sequence of Clb5-TAP-Cdk1 complex (P00546 whole entry, chain 2 of 2): as the sequence (P00546 whole entry, chain 2 of 2) above

B1: full-length Sic1 (natural protein, budding yeast, UniProt P38634 1-284, looked up)
chain: MTPSTPPRSRGTRYLAQPSGNTSSSALMQGQKTPQKPSQNLVPVTPSTTKSFKNAPLLAPPNSNMGMTSPFNGLTSPQRSPFPKSSVKRTLFQFESHDNGTVREEQEPLGRVNRILFPTQQNVDIDAAEEEEEGEVLLPPSRPTSARQLHLSLERDEFDQTHRKKIIKDVPGTPSDKVITFELAKNWNNNSPKNDARSQESEDEEDIIINPVRVGKNPFASDELVTQEIRNERKRAMLRENPDIEDVITYVNKKGEVVEKRRLTDEEKRRFKPKALFQSRDQEH
With B1, in the assay with Clb5-TAP-Cdk1 complex, the binding result is “binds”.

B2: Cks1 (endogenous, in yeast) (natural protein, UniProt P20486 1-150, looked up)
chain: MYHHYHAFQGRKLTDQERARVLEFQDSIHYSPRYSDDNYEYRHVMLPKAMLKVIPSDYFNSEVGTLRILTEDEWRGLGITQSLGWEHYECHAPEPHILLFKRPLNYEAELRAATAAAQQQQQQQQQQQQQQQQHQTQSISNDMQVPPQIS
For B2, the “stoichiometry N” value with 3HA-Cln2-Cdk1 complex was ~1 Cks1:Cdk1.
